We go through 3 molecules from US20060270596A1 (CENTRE NATIONAL DE LA RECHERCHE SCIENTIFIQUE CNRS, published 2006).

To fix the notation:
B1: human THAP1 (THanatos-Associated-Protein-1), full length (other)
chain: MVQSCSAYGCKNRYDKDKPVSFHKFPLTRPSLCKEWEAAVRRKNFKPTKYSSICSEHFTPDCFKRECNNKLLKENAVPTIFLCTEPHDKKEDLLEPQEQLPPPPLPPPVSQVDAAIGLLMPPLQTPVNLSVFCDHNYTVEDTMHQRKRIHQLEQQVEKLRKKLKTAQQRCRRQERQLEKLKEVVHFQKEKDDVSERGYVILPNDYFEIVEVPA
notes: these tags are not written into the chain; also called hTHAP1; THAP1 wild type
B3: GST-Par4DD fusion protein (Par4 amino acids 250-342) (other)
chain: GFPRYNRDANVSGTLVSSSTLEKKIEDLEKEVVTERQENLRLVRLMQDKEEMIGKLKEEIDLLNRDLDDIEDENEQLKQENKTLLKVVGQLTR
notes: Expressed in E. coli, immobilized on glutathione sepharose; not shown: glutathione S-transferase encoded by vector pGEX-2T (Amersham Pharmacia Biotech)

The target of data set [1] is T1, Par4 deletion mutant lacking the leucine zipper/death domain (Par4Δ, amino acids 1-276) (human, UniProt Q96IZ0 1-274).
T1 construct: Gal4 fusion in two-hybrid; also called Par4A; PAR4A
T1 sequence: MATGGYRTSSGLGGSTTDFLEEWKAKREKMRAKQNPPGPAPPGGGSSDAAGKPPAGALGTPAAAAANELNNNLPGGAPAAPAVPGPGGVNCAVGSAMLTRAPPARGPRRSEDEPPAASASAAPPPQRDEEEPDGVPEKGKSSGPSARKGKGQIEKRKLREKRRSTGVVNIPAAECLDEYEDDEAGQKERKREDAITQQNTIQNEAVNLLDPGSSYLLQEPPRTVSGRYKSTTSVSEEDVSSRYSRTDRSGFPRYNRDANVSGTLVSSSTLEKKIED
As to the kind of experiment: yeast two-hybrid.

Data set [2] deals with the molecule itself. As to the kind of experiment: yeast two-hybrid, THAP1 bait.
Data set [3] deals with T2, GST (glutathione S-transferase) control protein (UniProt P08515 1-218 = GST).
T2 construct: Negative control in GST pull-down assays; also called GST beads; GST alone
T2 sequence (P08515 whole entry): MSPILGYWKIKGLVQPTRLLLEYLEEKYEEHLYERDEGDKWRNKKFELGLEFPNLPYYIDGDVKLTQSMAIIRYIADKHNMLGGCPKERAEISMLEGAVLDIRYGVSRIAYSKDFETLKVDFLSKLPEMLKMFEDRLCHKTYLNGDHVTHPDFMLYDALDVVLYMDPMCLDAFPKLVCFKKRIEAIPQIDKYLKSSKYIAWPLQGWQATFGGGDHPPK
As to the kind of experiment: GST pull-down, negative control: in vitro translated 35S-labelled protein on GST alone immobilised on glutathione sepharose, SDS-PAGE, fluorography. On the procedure:
To confirm the interaction observed in yeast, we performed in vitro GST pull down assays. Par4DD, expressed as a GST-tagged fusion protein and immobilized on glutathione sepharose, was incubated with radiolabeled in vitro translated THAP1. To generate the GST-Par4DD expression vector, Par4DD (amino acids 250-342) was amplified by PCR with primers Par4.10 (5′-[…]-3′) (SEQ ID NO: 194) and Par4.5, and cloned in frame downstream of the Glutathion S-Transferase ORF, into the BamHI site of the pGEX-2T prokaryotic expression vector (Amersham Pharmacia Biotech, Saclay, France). GST-Par4DD (amino acids 250-342) fusion protein encoded by plasmid pGEX-2T-Par4DD and control GST protein encoded by plasmid pGEX-2T, were then expressed in E. coli DH5α and purified by affinity chromatography with glutathione sepharose according to supplier's instructions (Amersham Pharmacia Biotech). The yield of proteins used in GST pull-down assays was determined by SDS-Polyarylamide Gel Electrophoresis (PAGE) and Coomassie blue staining analysis. In vitro-translated THAP1 was generated with the TNT-coupled reticulocyte lysate system (Promega, Madison, Wis., USA) using pGBKT7-THAP1 vector as template. […]

In data set [4] the target is T3, human chemokine SLC/CCL21, mature form (amino acids 24-134) (human, UniProt O00585 24-134).
T3 construct: GenBank NP-002980; Used as Gal4 fusion in two-hybrid and as 35S-labelled in vitro translation product in pull-downs; also called SLC/6Ckine; SLC/CCL21 wild type
T3 sequence: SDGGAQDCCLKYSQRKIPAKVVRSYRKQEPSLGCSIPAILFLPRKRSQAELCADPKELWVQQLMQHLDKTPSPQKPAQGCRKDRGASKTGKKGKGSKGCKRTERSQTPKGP
As to the kind of experiment: yeast two-hybrid, SLC/CCL21 bait.

The target in data set [5] is B1. As to the kind of experiment: yeast two-hybrid, THAP1 bait.
Data set [6] concerns the target T4, Par4 leucine zipper/death domain (Par4DD, amino acids 250-342) (human, UniProt Q96IZ0 248-340).
T4 construct: Gal4 fusion in two-hybrid; also called myc-Par4DD
T4 chain: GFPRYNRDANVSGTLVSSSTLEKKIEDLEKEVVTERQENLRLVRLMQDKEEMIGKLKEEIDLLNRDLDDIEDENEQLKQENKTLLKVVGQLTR
As to the kind of experiment: yeast two-hybrid and in vivo interaction assay.

In data set [7] the target is B3. As to the kind of experiment: GST pull-down.
Data set [8] deals with T5, human prostate apoptosis response-4 (PAR4), full length (human, UniProt Q96IZ0 1-340, limits assumed).
T5 construct: Gal4-BD or Gal4-AD fusion in two-hybrid; also called Par4 wild type
T5 chain: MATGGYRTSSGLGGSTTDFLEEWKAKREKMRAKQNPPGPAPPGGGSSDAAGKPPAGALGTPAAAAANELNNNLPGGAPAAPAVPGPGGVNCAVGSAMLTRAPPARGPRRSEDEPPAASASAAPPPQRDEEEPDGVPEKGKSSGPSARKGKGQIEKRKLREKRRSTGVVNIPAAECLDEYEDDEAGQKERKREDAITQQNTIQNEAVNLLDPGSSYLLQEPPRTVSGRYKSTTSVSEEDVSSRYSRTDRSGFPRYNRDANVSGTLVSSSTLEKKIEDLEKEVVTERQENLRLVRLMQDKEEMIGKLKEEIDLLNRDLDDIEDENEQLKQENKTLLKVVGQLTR
As to the kind of experiment: yeast two-hybrid, Par4 wt bait. On the procedure:
for mutant THAP1ΔQRCRR. The resulting PCR fragments were digested with EcoRI and BamHI, and cloned in frame downstream of the Gal4 Binding Domain (Gal4-BD) in pGBKT7 two-hybrid vector (Clontech) to generate pGBKT7-THAP1-RR/AA and -Δ(QRCRR), or downstream of the Enhanced Green Fluorescent Protein (EGFP)ORF in pEGFP.C2 vector (Clontech) to generate pEGFP.C2-THAP1-RR/AA and -Δ(QRCRR). THAP1RR/AA and THAP1ΔQRCRR THAP1 mutants were then tested in the three THAP1/Par4 interaction assays (two-hybrid assay, in vitro THAP1/Par4 interaction assay, in vivo THAP1/Par4 interaction assay) as described above for the THAP1-C1, -C2, -C3, -N1, -N2 or -N3 mutants.

For data set [9], the target named is T6, THAP1-N1 deletion mutant (amino acids 1-90) (human, UniProt Q9NVV9 1-90).
T6 construct: Gal4 fusion, in vitro translation product or GFP fusion according to assay; also called zinc finger domain of THAP1
T6 sequence: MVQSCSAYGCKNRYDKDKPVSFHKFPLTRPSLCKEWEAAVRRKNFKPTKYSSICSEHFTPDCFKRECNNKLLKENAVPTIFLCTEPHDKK
As to the kind of experiment: GST pull-down: in vitro translated 35S-labelled protein on GST-Par4DD immobilised on glutathione sepharose, SDS-PAGE, fluorography. On the procedure: (§1) THAP1 mutants were also tested in the in vitro THAP1/Par4 interaction assay. In vitro-translated THAP1 mutants were generated with the TNT-coupled reticulocyte lysate system (Promega, Madison, Wis., USA) using pGBKT7-THAP1-C1, -C2, -C3, -N1, -N2 or -N3 vector as template. 25 μl of each ³⁵S-labelled THAP1 mutant was incubated with immobilized GST or GST-Par4 protein overnight at 4° C., in the following binding buffer: 10 mM NaPO4 pH 8.0, 140 mM NaCl, 3 mM MgCl2, 1 mM dithiothreitol (DTT), 0.05% NP40, and 0.2 mM phenylmethyl sulphonyl fluoride (PMSF), 1 mM Na Vanadate, 50 mM β Glycerophosphate, 25 μg/ml chimotrypsine, 5 μg/ml aprotinin, 10 μg/ml Leupeptin. Beads were then washed 5 times in 1 ml binding buffer. Bound proteins were eluted with 2× Laemmli SDS-PAGE sample buffer, fractionated by 10% SDS-PAGE and visualized by fluorography using Amplify (Amersham Pharmacia Biotech). As expected, THAP1-C1, -C2, -C3, -and -N3 interacted with GST/Par4DD (FIG. 4B).

Data set [10] deals with T7, THAP1-N2 deletion mutant (amino acids 1-166) (human, UniProt Q9NVV9 1-166).
T7 construct: Gal4 fusion, in vitro translation product or GFP fusion according to assay
T7 sequence: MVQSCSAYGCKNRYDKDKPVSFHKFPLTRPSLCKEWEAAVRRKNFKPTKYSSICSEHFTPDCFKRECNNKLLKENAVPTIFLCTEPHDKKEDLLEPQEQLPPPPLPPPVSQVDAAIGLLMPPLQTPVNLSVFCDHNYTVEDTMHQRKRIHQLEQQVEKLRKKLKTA
The data set is described as above. On the procedure:
as §1

For data set [11], the target named is T8, THAP1ΔQRCRR mutant (deletion of residues 168-172) (human, UniProt Q9NVV9 1-213).
T8 sequence: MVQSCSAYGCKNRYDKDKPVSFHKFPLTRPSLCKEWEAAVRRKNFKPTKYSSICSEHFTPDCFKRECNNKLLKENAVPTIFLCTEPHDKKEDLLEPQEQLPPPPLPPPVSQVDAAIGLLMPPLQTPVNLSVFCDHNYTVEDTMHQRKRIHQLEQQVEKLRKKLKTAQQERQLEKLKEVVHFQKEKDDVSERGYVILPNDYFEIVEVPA
As to the kind of experiment: GST pull-down.

Take B1: the results for the binding result in data set [1], in data set [2] and in data set [3] were “no binding”, “binds” and “no binding”, respectively.

B2: THAP1 RR/AA mutant (R171A, R172A) (other)
chain: MVQSCSAYGCKNRYDKDKPVSFHKFPLTRPSLCKEWEAAVRRKNFKPTKYSSICSEHFTPDCFKRECNNKLLKENAVPTIFLCTEPHDKKEDLLEPQEQLPPPPLPPPVSQVDAAIGLLMPPLQTPVNLSVFCDHNYTVEDTMHQRKRIHQLEQQVEKLRKKLKTAQQRCAAQERQLEKLKEVVHFQKEKDDVSERGYVILPNDYFEIVEVPA
notes: Gal4-BD fusion, in vitro translation product or GFP fusion according to assay; also called THAP RR/AA
Regarding B2, the binding result in data set [4] is “binds”; in data set [5], “binds”; in [6], “no binding”; in data set [7], “no binding”; in data set [8], “no binding”.
Regarding B3, the binding result in data set [9], in data set [10] and in [11] was “no binding” each time.
